One block for each binder: values may come before it.
Target: T1, STN1, endogenous (HeLa) (human (endogenous in HeLa), UniProt Q9H668 1-368)
T1 construct: STN1 (OBFC1), subunit of the CST complex, endogenous; also called OBFC1; source: endogenous, in fixed HeLa 1.2.11 cells
T1 sequence (looked up): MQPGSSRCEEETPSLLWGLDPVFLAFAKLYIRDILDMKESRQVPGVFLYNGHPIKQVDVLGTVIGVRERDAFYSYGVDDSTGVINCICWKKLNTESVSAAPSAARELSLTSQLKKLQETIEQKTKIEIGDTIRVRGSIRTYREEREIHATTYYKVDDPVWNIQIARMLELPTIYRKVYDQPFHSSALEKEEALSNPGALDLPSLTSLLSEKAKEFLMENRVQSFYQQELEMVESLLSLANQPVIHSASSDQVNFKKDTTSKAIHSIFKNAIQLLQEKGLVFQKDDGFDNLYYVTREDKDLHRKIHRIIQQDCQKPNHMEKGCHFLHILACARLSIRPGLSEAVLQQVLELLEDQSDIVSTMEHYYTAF
Assay: proximity ligation; fixed HeLa 1.2.11 cells, Duolink PLA kit, antibodies to the endogenous proteins (mouse α-STN1 with rabbit α-SMC3, α-PolA1 or α-MCM7); untreated cells, and for STN1 with SMC3 also after HU (2 mM, 2 h), APH (1 μM, 2 h) or CPT (1 μM, 1 h)
Details: partners not purified

PLA foci per cell (average): 2.5 foci per cell
B1: PolA1, subunit of DNA polymerase α-primase, endogenous (HeLa) (natural protein, human (endogenous in HeLa), UniProt P09884 1-1462, looked up)
chain: MAPVHGDDSLSDSGSFVSSRARREKKSKKGRQEALERLKKAKAGEKYKYEVEDFTGVYEEVDEEQYSKLVQARQDDDWIVDDDGIGYVEDGREIFDDDLEDDALDADEKGKDGKARNKDKRNVKKLAVTKPNNIKSMFIACAGKKTADKAVDLSKDGLLGDILQDLNTETPQITPPPVMILKKKRSIGASPNPFSVHTATAVPSGKIASPVSRKEPPLTPVPLKRAEFAGDDVQVESTEEEQESGAMEFEDGDFDEPMEVEEVDLEPMAAKAWDKESEPAEEVKQEADSGKGTVSYLGSFLPDVSCWDIDQEGDSSFSVQEVQVDSSHLPLVKGADEEQVFHFYWLDAYEDQYNQPGVVFLFGKVWIESAETHVSCCVMVKNIERTLYFLPREMKIDLNTGKETGTPISMKDVYEEFDEKIATKYKIMKFKSKPVEKNYAFEIPDVPEKSEYLEVKYSAEMPQLPQDLKGETFSHVFGTNTSSLELFLMNRKIKGPCWLEVKSPQLLNQPVSWCKVEAMALKPDLVNVIKDVSPPPLVVMAFSMKTMQNAKNHQNEIIAMAALVHHSFALDKAAPKPPFQSHFCVVSKPKDCIFPYAFKEVIEKKNVKVEVAATERTLLGFFLAKVHKIDPDIIVGHNIYGFELEVLLQRINVCKAPHWSKIGRLKRSNMPKLGGRSGFGERNATCGRMICDVEISAKELIRCKSYHLSELVQQILKTERVVIPMENIQNMYSESSQLLYLLEHTWKDAKFILQIMCELNVLPLALQITNIAGNIMSRTLMGGRSERNEFLLLHAFYENNYIVPDKQIFRKPQQKLGDEDEEIDGDTNKYKKGRKKAAYAGGLVLDPKVGFYDKFILLLDFNSLYPSIIQEFNICFTTVQRVASEAQKVTEDGEQEQIPELPDPSLEMGILPREIRKLVERRKQVKQLMKQQDLNPDLILQYDIRQKALKLTANSMYGCLGFSYSRFYAKPLAALVTYKGREILMHTKEMVQKMNLEVIYGDTDSIMINTNSTNLEEVFKLGNKVKSEVNKLYKLLEIDIDGVFKSLLLLKKKKYAALVVEPTSDGNYVTKQELKGLDIVRRDWCDLAKDTGNFVIGQILSDQSRDTIVENIQKRLIEIGENVLNGSVPVSQFEINKALTKDPQDYPDKKSLPHVHVALWINSQGGRKVKAGDTVSYVICQDGSNLTASQRAYAPEQLQKQDNLTIDTQYYLAQQIHPVVARICEPIDGIDAVLIATWLGLDPTQFRVHHYHKDEENDALLGGPAQLTDEEKYRDCERFKCPCPTCGTENIYDNVFDGSGTDMEPSLYRCSNIDCKASPLTFTVQLSNKLIMDIRRFIKKYYDGWLICEEPTCRNRTRHLPLQFSRTGPLCPACMKATLQPEYSDKSLYTQLCFYRYIFDAECALEKLTTDHEKDKLKKQFFTPKVLQDYRKLKNTAEQFLSRSGYSEVNLSKLFAGCAVKS
notes: PolA1, subunit of DNA polymerase α-primase, endogenous; the subunit to which the PLA antibody was directed; The results name the partner as the complex DNA polymerase α-primase; the antibody of the PLA was against PolA1; source: endogenous, in fixed HeLa 1.2.11 cells

PLA foci per cell (average): ~6 foci per cell | fold increase in PLA foci after HU, APH or CPT against untreated cells: ~2 fold
B2: SMC3, endogenous (HeLa) (natural protein, human (endogenous in HeLa), UniProt Q9UQE7 1-1217, looked up)
chain: MYIKQVIIQGFRSYRDQTIVDPFSSKHNVIVGRNGSGKSNFFYAIQFVLSDEFSHLRPEQRLALLHEGTGPRVISAFVEIIFDNSDNRLPIDKEEVSLRRVIGAKKDQYFLDKKMVTKNDVMNLLESAGFSRSNPYYIVKQGKINQMATAPDSQRLKLLREVAGTRVYDERKEESISLMKETEGKREKINELLKYIEERLHTLEEEKEELAQYQKWDKMRRALEYTIYNQELNETRAKLDELSAKRETSGEKSRQLRDAQQDARDKMEDIERQVRELKTKISAMKEEKEQLSAERQEQIKQRTKLELKAKDLQDELAGNSEQRKRLLKERQKLLEKIEEKQKELAETEPKFNSVKEKEERGIARLAQATQERTDLYAKQGRGSQFTSKEERDKWIKKELKSLDQAINDKKRQIAAIHKDLEDTEANKEKNLEQYNKLDQDLNEVKARVEELDRKYYEVKNKKDELQSERNYLWREENAEQQALAAKREDLEKKQQLLRAATGKAILNGIDSINKVLDHFRRKGINQHVQNGYHGIVMNNFECEPAFYTCVEVTAGNRLFYHIVDSDEVSTKILMEFNKMNLPGEVTFLPLNKLDVRDTAYPETNDAIPMISKLRYNPRFDKAFKHVFGKTLICRSMEVSTQLARAFTMDCITLEGDQVSHRGALTGGYYDTRKSRLELQKDVRKAEEELGELEAKLNENLRRNIERINNEIDQLMNQMQQIETQQRKFKASRDSILSEMKMLKEKRQQSEKTFMPKQRSLQSLEASLHAMESTRESLKAELGTDLLSQLSLEDQKRVDALNDEIRQLQQENRQLLNERIKLEGIITRVETYLNENLRKRLDQVEQELNELRETEGGTVLTATTSELEAINKRVKDTMARSEDLDNSIDKTEAGIKELQKSMERWKNMEKEHMDAINHDTKELEKMTNRQGMLLKKKEECMKKIRELGSLPQEAFEKYQTLSLKQLFRKLEQCNTELKKYSHVNKKALDQFVNFSEQKEKLIKRQEELDRGYKSIMELMNVLELRKYEAIQLTFKQVSKNFSEVFQKLVPGGKATLVMKKGDVEGSQSQDEGEGSGESERGSGSQSSVPSVDQFTGVGIRVSFTGKQGEMREMQQLSGGQKSLVALALIFAIQKCDPAPFYLFDEIDQALDAQHRKAVSDMIMELAVHAQFITTTFRPELLESADKFYGVKFRNKVSHIDVITAEMAKDFVEDDTTHG
notes: SMC3, core subunit of the cohesin complex, endogenous; also called cohesin subunit; source: endogenous, in fixed HeLa 1.2.11 cells

From PMC8390553, “The DNA-binding protein CST associates with the cohesin complex and promotes chromosome cohesion” (The Journal of Biological Chemistry, 2021)
